# Measured values as given in publication PMC10628234.
# Biological target: Coxiella burnetii Fic enzyme 2 (CbFic2), wild type, untagged (Coxiella burnetii) (UniProt Q83DB6)
# Test: crystal structure
substance,measurement,value
"Coxiella burnetii Fic enzyme 2 (CbFic2), wild type, untagged (from UniProt Q83DB6 1-378)",stoichiometry N,2
